Numbering of substitutions follows the chain as printed.
B1: antibody 1030 (antibody, human IgG1, kappa, V domains shown)
VH: EVQLVESGGGLVKPGGSLKLSCAASGFTFSSYALSWVRQTPERRLEWVASISGVGSTYFPDSVKGRFTMSRDNARNILYLQMSSLRSEDTAMYYCARGSDGYFYAMDYWGQGTSVTVSS
VL: DIVLTQSPASLAVSLGQRATISCRASKSVSTSGYSFMHWYQLKPGQPPKLLIYLASNLESGVPARFSGSGSGTDFTLNIHPVEEEDAATYYCQHSREFPLTFGGGTKLEIKR
notes: Chimeric IgG1 kappa
B2: antibody 1344 (antibody, human IgG1, kappa, V domains shown)
VH: QVQLKESGPGLVAPSQSLSITCTVSGFSLTIYGVHWVRQPPGKGLEWLGVIWAGGNTNYNSALMSRLSISKDNSKSQVFLKMNSLQTDDTAMYFCARGYGYNLDYWGQGTTLTVSS
VL: DIQMTQTTSSLSASLGDRVTISCSASQGISNYLNWYQQKPDGTVKLLIYYTSSLHSGVPSRFSGSGSGTDYSLTISNLEPEDIATYYCQQYSKLPYTFGGGTKLEIKR
notes: Chimeric IgG1 kappa
B3: antibody 1308 (antibody, human IgG1, kappa, V domains shown)
VH: EVQLQQSGAELVRPGSSVKISCKASGYAFSSYWMNWVRQRPGQGLEWIGQIYPGDGDTNYNGKFKGRATLTANKSSSTAYMQLSSLTSEDSAVYFCARRASSLYDVYPYYFDYWGQGTTLTVSS
VL: B2 VL with S24R, G28D, L46V, S53R, P80Q, Y87F, Y91G, S92N, K93T
notes: Chimeric IgG1 kappa
B4: antibody 1320 (antibody, human IgG1, kappa, V domains shown)
VH: QVQLQQPGAELVKPGASMKLSCKASGYTFTNYWMHWVKQRPGQGLEWIGEINPSNGRTNYNEKFKSKATLTVDKSSSTAYMQLSSLTSEDSGVYYCAKGGNYYDYDWDYWGQGTTLTVSS
VL: B2 VL with G28D, Y50H, S53T, Y96W
notes: Chimeric IgG1 kappa
B5: antibody 1260 (antibody, human IgG1, kappa, V domains shown)
VH: B2 VH with I31T, N56S, S70K, F94Y, G98A, L103F
VL: B2 VL with S30T, T51S, K93E, L94I, I106L
notes: Chimeric IgG1 kappa
B6: antibody 1347 (antibody, human IgG1, kappa, V domains shown)
VH: QVQLKESGPGLVAPSQSLSITCTVSGFSLTGHGVNWVRQPPGKGLEWLGMIWGDGSTDYNSTLKSRLSISKDNSKSQVFLKMNSLQTDDTARYYCARGYGYLYYFDYWGQGTTLTVSS
VL: ENVLTQSPAIMSASPGEKVTMTCRASSSVSSSYLHWYQQKSGASPKLWIYSTSNLASGVPARFSGSGSGTSYSLTVNSVETEDAATYYCHQYSGFPFTFGSGTKLELKR
notes: Chimeric IgG1 kappa
B7: antibody 992 (antibody, human IgG1, kappa, V domains shown)
VH: EVQLQQPGSELVRPGASVKLSCKASGYTFTSYWMHWVKQRPGQGLEWIGNIYPGSRSTNYDEKFKSKATLTVDTSSSTAYMQLSSLTSEDSAVYYCTRNGDYYVSSGDAMDYWGQGTSVTVSS
VL: DIQMTQTTSSLSASLGDRVTISCRTSQDIGNYLNWYQQKPDGTVKLLIYYTSRLHSGVPSRFSGSGSGTDFSLTINNVEQEDVATYFCQHYNTVPPTFGGGTKLEIKR
notes: Chimeric mouse/human IgG1 kappa; the VL entry includes the human kappa constant region
B8: antibody 1024 (antibody, human IgG1, kappa, V domains shown)
VH: QVQLQQPGAELVEPGGSVKLSCKASGYTFTSHWMHWVKQRPGQGLEWIGEINPSSGRNNYNEKFKSKATLTVDKSSSTAYMQFSSLTSEDSAVYYCVRYYGYDEAMDYWGQGTSVTVSS
VL: DIVMTQAAFSNPVTLGTSASISCRSSKSLLHSNGITYLYWYLQKPGQSPQLLIYQMSNLASGVPDRFSSSGSGTDFTLRISRVEAEDVGVYYCAQNLELPYTFGGGTKLEIKR
notes: Chimeric IgG1 kappa
B9: antibody 1208 (antibody, human IgG1, kappa, V domains shown)
VH: EVQLVESGGGLVKPGGSLKLSCAASGFAFSSYDMSWVRQTPEKRLEWVAYIGSGDDNTHYPDSVKGRFTISRHNAKNTLYLQMSSLKSEDTAMYYCARQKYGNYGDTMDYWGQGTSVTVSS
VL: DVVMTQTPLSLPVSLGDQASISCRSSQSLVHSNGNTYLHWYLQKPGQSPKLLIYKVSNRFSGVPDRFSGSGSGTDFTLKISRVEAEDLGVYFCSQSTHVPTFGGGTKLEIKR
notes: Chimeric IgG1 kappa; also called clone 1208

How the values were obtained:
[1] = molecular target: T1, wild type full length EGFR purified from A431 cells (human, UniProt P00533 25-1210); test: competition ELISA, competitor Ab-11; design: concentration or dose not given beside the values
T1 construct: mature; Bought; coated on ELISA wells; also called full length EGFR receptor antigen; Sigma E3641
Procedure: (§1) The ELISA was adapted from the descriptions published in Ditzel et al, 1995, The Journal of Immunology, Vol 154, Issue 2 893-906.
(§2) An epitope blocking ELISA was performed by diluting full length EGFR receptor antigen to 0.5 μg/ml in PBS; and coating 50 μl/ELISA well overnight at 4° C. […] Finally wells were washed four times with PBS-T and plates were developed by adding 50 μl/well TMB and read at 620 nm every 5-15-30 min. The degree of inhibition was calculated from the formula: % inhibition=(1−(OD competition/OD no competition (PBS)))×100.

[2] = molecular target: T1, wild type full length EGFR purified …; test: competition ELISA, competitor Ab-1; design: concentration or dose not given beside the values
Procedure: as §1, §2

[3] = molecular target: T2, recombinant human EGFR extracellular domain with 6xHis (human, UniProt P00533 25-645); test: SPR (BIAcore 2000); IgG captured on anti-human Fc, soluble monovalent EGFR ECD injected
T2 construct: In-house produced; also called 6xHis EGFR ECD; soluble human EGFR ECD; not shown: 6xHis tag
Procedure: Kinetic analysis of the full length IgG antibodies of the invention was performed on a BIAcore 2000, employing an assay as described in (Canziani, Klakamp, et al. 2004, Anal. Biochem, 325:301-307) allowing measurement of monovalent affinities of whole IgG molecules against soluble antigen. […] The chip surface was regenerated in between cycles by stripping the captured antibody/antigen complexes with a 10 second injection of 100 mM H₃PO₄. […] The association rate constant (ka) and dissociation constant (kd) were evaluated globally from the generated sensograms with the BIA evaluation software 4.1 provided by the manufacturer.

[4] = molecular target: T2, recombinant human EGFR extracellular …; test: SPR competition, competitor 1042
Procedure: (§3) SPR analysis was performed on a Biacore 3000 machine containing four flow cells. A CM5 Biacore chip was conjugated with 10,000 Resonance units (Ru) polyclonal anti-His antibody to flow cells 1-4 according to the manufacturer's instructions. […] Immediately after antigen injection the maximal binding of the Anti-EGFR mAb without competition was established in each flow cell during a reference run. Briefly 5 μl antibody at a concentration of 40 μg/ml was injected over all flow cells with captured EGFR followed by stripping of the antibody/antigen complex with a low pH acid wash (10 sec. contact time with 10 mM Glycine-HCl, pH2). After the determination of Anti-EGFR antibody maximal binding to each flow cell, a competition run was performed during the same Biacore cycle. Flow cells were first saturated with EGFR ECD antigen followed by injection of different reference antibodies or Anti-EGFR antibodies into separate flow cells using the same antigen saturating conditions as outlined above. This step was immediately followed by a second injection of Anti-EGFR antibody over the flow cell saturated with EGFR antigen and competition antibody to minimize the dissociation of either antigen or blocking antibody. Then the antibody/antigen complexes were stripped off with a low pH acid wash (10 sec. contact time with 10 mM Glycine-HCl, pH 2) and the whole cycle beginning with the reference run was repeated with a new Anti-EGFR antibody. The degree of inhibition of tested Anti-EGFR antibodies were determined by comparing the Ru max value of the individual Anti-EGFR antibody before and after competition by introduction of report points recorded two seconds before and after injection of each sample.

[5] = molecular target: T1, wild type full length EGFR purified …; test: competition ELISA, competitor Ab-2; design: concentration or dose not given beside the values
Procedure: as §1, §2

[6] = molecular target: T2, recombinant human EGFR extracellular …; test: SPR competition, competitor 1449
Procedure: as §3

[7] = molecular target: T2, recombinant human EGFR extracellular …; test: SPR competition, competitor 1308
Procedure: as §3

[8] = molecular target: T1, wild type full length EGFR purified …; test: competition ELISA, competitor Ab-5; design: concentration or dose not given beside the values
Procedure: as §1, §2

[9] = molecular target: T1, wild type full length EGFR purified …; test: competition ELISA, competitor Ab-3; design: concentration or dose not given beside the values
Procedure: as §1, §2

[10] = molecular target: T1, wild type full length EGFR purified …; test: competition ELISA, competitor Ab-10; design: concentration or dose not given beside the values
Procedure: as §1, §2

[11] = molecular target: T1, wild type full length EGFR purified …; test: competition ELISA, competitor ICR10; design: concentration or dose not given beside the values
Procedure: as §1, §2

[12] = molecular target: T3, EGFRvIII (deletion mutant EGFR) (human, UniProt P00533 25-645, limits assumed); test: EGFRvIII ELISA (Example 1)
T3 construct: also called deltaEGFR; rhEGFRvIII

Row | Binder | % inhibition [1] | % inhibition [2] | Kd [3] | koff [3] | kon [3] | t1/2 [3] | % inhibition [4] | % inhibition [5] | % inhibition [6] | % inhibition [7] | % inhibition [8] | % inhibition [9] | % inhibition [10] | % inhibition [11] | binding result [12]
1 | B1 | -20% | 91% | 29.2 nM | 0.00037 s⁻¹ | 13000 M⁻¹ s⁻¹ | 31.1 min | 11% | -1% | 4% | -12% | 92% | -35% | 92% | 12% | –
2 | B2 | 82% | 19% | – | – | – | – | – | 14% | – | 73% | 28% | 40% | 36% | 82% | no binding
3 | B3 | 91% | 4% | – | – | – | – | – | 11% | – | 75% | 0% | 19% | 12% | 71% | no binding
4 | B4 | 8% | 9% | 24.2 nM | 0.0028 s⁻¹ | 120000 M⁻¹ s⁻¹ | 4.1 min | 48% | -9% | 50% | -2% | 6% | 0% | 7% | 2% | –
5 | B5 | 92% | 12% | 4.2 nM | 0.00016 s⁻¹ | 37000 M⁻¹ s⁻¹ | 74.1 min | 31% | 8% | 29% | – | 17% | 12% | 24% | 90% | no binding
6 | B6 | – | – | 21.4 nM | 0.0005 s⁻¹ | 24000 M⁻¹ s⁻¹ | 22.9 min | – | – | – | 82% | – | – | – | – | no binding
7 | B7 | -2% | 78% | – | – | – | 0.2 min | 21% | 77% | 98% | -9% | -3% | -21% | -14% | -20% | –
8 | B8 | 18% | 3% | 26.7 nM | 0.0049 s⁻¹ | 180000 M⁻¹ s⁻¹ | 2.4 min | 71% | 75% | 78% | -3% | 12% | 11% | 27% | 11% | –
9 | B9 | -3% | 82% | – | – | – | – | 9% | 20% | – | 5% | 84% | -10% | 89% | -21% | –
